Experimental data reported in publication PMC12691643.
Where “and” joins values, the source holds several entries; their conditions need not be identical. Equal values may be shown once.

Legend:
Experiment in all cases: affinity purification with mass spectrometry; HA-tagged TgWIP variants pulled down by the HA tag from lysates of DC2.4 cells infected 4 h at MOI 7; host partners by mass spectrometry; values are negative fold changes in peptide counts of the mutant immunoprecipitations relative to TgWIP^WT
[1] = target: TgWIP^(PRR2 mut), HA-tagged (Toxoplasma gondii)
[2] = target: TgWIP^(WIRS mut), HA-tagged (Toxoplasma gondii)
[3] = target: TgWIP^Y150A/Y199A, HA-tagged (Toxoplasma gondii)
[4] = target: TgWIP^(PRR3 mut), HA-tagged (Toxoplasma gondii)

Question: Which results are given for “Nck2, endogenous in murine DC2.4 cells (from UniProt O55033 1-380) (natural protein)”?
Answer: negative fold change in peptide counts relative to TgWIP^WT [1]: 1 fold; negative fold change in peptide counts relative to TgWIP^WT [2]: 1 fold; negative fold change in peptide counts relative to TgWIP^WT [3]: 1 fold; negative fold change in peptide counts relative to TgWIP^WT [4]: 3 fold

Question: How did the negative fold change in peptide counts relative to TgWIP^WT [1] turn out when “Abi1, endogenous in murine DC2.4 cells (from UniProt Q8CBW3 1-481) (natural protein)” was run?
Answer: 4 fold

Question: And the negative fold change in peptide counts relative to TgWIP^WT [2]?
Answer: 4 fold

Question: What about the negative fold change in peptide counts relative to TgWIP^WT [3] of the same molecule?
Answer: 2 fold

Question: And the negative fold change in peptide counts relative to TgWIP^WT [4]?
Answer: 6 fold

Question: How did the negative fold change in peptide counts relative to TgWIP^WT [1] turn out when “Cyfip1, endogenous in murine DC2.4 cells (from UniProt Q7TMB8 1-1253) (natural protein)” was run?
Answer: 2 fold

Question: What about the negative fold change in peptide counts relative to TgWIP^WT [2] of the same molecule?
Answer: 2 fold

Question: What about the negative fold change in peptide counts relative to TgWIP^WT [3] of the same molecule?
Answer: 1 fold

Question: What about the negative fold change in peptide counts relative to TgWIP^WT [4] of the same molecule?
Answer: 5 fold

Question: Which negative fold change in peptide counts relative to TgWIP^WT [1] does the source give for “Grb2, endogenous in murine DC2.4 cells (from UniProt Q60631 1-217) (natural protein)” here?
Answer: 6 fold

Question: What about the negative fold change in peptide counts relative to TgWIP^WT [2] of the same molecule?
Answer: 2 fold

Question: And the negative fold change in peptide counts relative to TgWIP^WT [3]?
Answer: 4 fold

Question: What about the negative fold change in peptide counts relative to TgWIP^WT [4] of the same molecule?
Answer: 3 fold

B1: Arhgef6, endogenous in murine DC2.4 cells (natural protein)
chain: MNPEERLVTWLISLGVLESPKKTVCDPEEFLKSSLKNGVVLCKLINRLLPGSVEKYCLEPQTEADCIDNINDFLKGCATLQVEVFEPDDLYSGANFSKVLNTLLAVNKATEDQLSERPCGRSSSLSAATSSQTNPQVAVPSTAPEQHSEEKAEMTENGSHQLIVKARFNFKQTNEDELSVCKGDIIYVTRVEEGGWWEGTLNGRTGWFPSNYVREIKPSERPLSPKAIKGFDTAPLTKNYYTVVLQNILDTEKEYAKELQSLLVTYLRPLQSNNNLSTVEFTCLLGNFEEVCTFQQTLCQALEECSKFPENQHKVGGCLLNLMPHFKSMYLAYCANHPSAVNVLTQHSDDLERFMENQGASSPGILILTTSLSKPFMRLEKYVTLLQELERHMEDTHPDHQDILKAIIAFKTLMGQCQDLRKRKQLELQILSEPIQAWEGDDIKTLGNVIFMSQVVMQHGACEEKEERYFLLFSSVLIMLSASPRMSGFMYQGKIPIAGMVVNRLDEIEGSDCMFEITGSTVERIVVHCNNNQDFQEWMEQLNRLTKGPTSCGSLSKTSSSSCSTHSSFSSTGQPRGPLEPPQIIKPWSLSCLRPAPPLRPSAALGYKERMSYILKESSKSPKTMKKFLHKRKTERKASEEEYVIRKSTAALEEDAQILKVIEAYCTSASFQQGTRKDSVPQVLLPEEEKLIIEETRSNGQTIIEEKSLVDTVYALKDEVKELKQENKKMKQCLEEELKSRKDLEKLVRKLLKQTDECIRSESSSKTSILQ
Question: Which negative fold change in peptide counts relative to TgWIP^WT [1] does the source give for B1 here?
Answer: 3 fold

Question: And the negative fold change in peptide counts relative to TgWIP^WT [2]?
Answer: 2 fold

Question: What about the negative fold change in peptide counts relative to TgWIP^WT [3] of the same molecule?
Answer: 2 fold

Question: What about the negative fold change in peptide counts relative to TgWIP^WT [4] of the same molecule?
Answer: 7 fold

B2: Arhgef7, endogenous in murine DC2.4 cells (natural protein)
chain: MNSAEQTVTWLITLGVLESPKKTISDPEVFLQASLKDGVVLCRLLERLLPGTIEKVYPEPRNESECLSNIREFLRACGASLRLETFDANDLYQGQNFNKVLSSLVTLNKVTADIGLGSDSVCARPSSHRIKSFDSLGSQSSHSRTSKLLQSQYRSLDMTDNTNSQLVVRAKFNFQQTNEDELSFSKGDVIHVTRVEEGGWWEGTHNGRTGWFPSNYVREIKPSEKPVSPKSGTLKSPPKGFDTTAINKSYYNVVLQNILETEHEYSKELQSVLSTYLRPLQTSDKLSSANTSYLMGNLEEISSFQQVLVQSLEECTKSPEAQQRVGGCFLSLMPQMRTLYLAYCANHPSAVSVLTEHSEDLGEFMETKGASSPGILVLTTGLSKPFMRLDKYPTLLKELERHMEDYHPDRQDIQKSMTAFKNLSAQCQEVRKRKELELQILTEPIRSWEGDDIKTLGSVTYMSQVTIQCAGSEEKNERYLLLFPNLLLMLSASPRMSGFIYQGKLPTTGMTITKLEDSENHRNAFEISGSMIERILVSCTSQQDLHEWVEHLQKQTKVTSVSNPTIKPHSVPSHTLPSHPLTPSSKHADSKPVALTPAYHTLPHPSHHGTPHTTISWGPLEPPKTPKPWSLSCLRPAPPLRPSAALCYKEDLSKSPKTMKKLLPKRKPERKPSDEEFAVRKSTAALEEDAQILKVIEAYCTSAKTRQTLNSTWQGTDLMHNHVLADDDQSSLDSLGRRSSLSRLEPSDLSEDSEYDSIWTAHSYRMGSASRSRKESAPQVLLPEEEKIIVEETKSNGQTVIEEKSLVDTVYALKDEVQELRQDNKKMKKSLEEEQRARKDLEKLVRKVLKNMNDPAWDETNL
Question: With B2 as the molecule, how does the negative fold change in peptide counts relative to TgWIP^WT [1] read?
Answer: 4 fold

Question: And the negative fold change in peptide counts relative to TgWIP^WT [2]?
Answer: 2 fold

Question: And the negative fold change in peptide counts relative to TgWIP^WT [3]?
Answer: 3 fold and 2 fold

Question: And the negative fold change in peptide counts relative to TgWIP^WT [4]?
Answer: 8 fold

B3: Git1, endogenous in murine DC2.4 cells (natural protein)
chain: MSRKGPRAEVCADCSAPDPGWASISRGVLVCDECCSVHRSLGRHISIVKHLRHSAWPPTLLQMVHTLASNGANSIWEHSLLDPAQVQSGRRKANPQDKVHPIKSEFIRAKYQMLAFVHKLPCRDDDGVTAKDLSKQLHSSVRTGNLETCLRLLSLGAQANFFHPEKGTTPLHVAAKAGQTLQAELLVVYGADPGSPDVNGRTPIDYARQAGHHELAERLVECQYELTDRLAFYLCGRKPDHKNGHYIIPQMADRSRQKCMSQSLDLSELAKAAKKKLQALSNRLFEELAMDVYDEVDRRENDAVWLATQNHSTLVTERSAVPFLPVNPEYSATRNQGRQKLARFNAREFATLIIDILSEAKRRQQGKSLSSPTDNLELSARSQSELDDQHDYDSVASDEDTDQEPLPSAGATRNNRARSMDSSDLSDGAVTLQEYLELKKALATSEAKVQQLMKVNSSLSDELRRLQREIHKLQAENLQLRQPPGPVPPPSLPSERAEHTLMGPGGSTHRRDRQAFSMYEPGSALKPFGGTPGDELATRLQPFHSTELEDDAIYSVHVPAGLYRIRKGVSASSVPFTPSSPLLSCSQEGSRHASKLSRHGSGADSDYENTQSGDPLLGLEGKRFLELSKEDELHPELESLDGDLDPGLPSTEDVILKTEQVTKNIQELLRAAQEFKHDSFVPCSEKIHLAVTEMASLFPKRPALEPVRSSLRLLNASAYRLQSECRKTVPPEPGAPVDFQLLTQQVIQCAYDIAKAAKQLVTITTREKKQ
Question: What does the source list for B3?
Answer: negative fold change in peptide counts relative to TgWIP^WT [1]: 4 fold; negative fold change in peptide counts relative to TgWIP^WT [2]: 2 fold; negative fold change in peptide counts relative to TgWIP^WT [3]: 2 fold; negative fold change in peptide counts relative to TgWIP^WT [4]: 11 fold

B4: Nostrin, endogenous in murine DC2.4 cells (natural protein)
chain: MRDPLTDCSYNKVYKSLKEFAQHGDNFCKQITSVLQQRANLEISYAKGLQKLAVRLSKALQSTKKNCLSTAWAWASESMKSAADLHQKLGKAIELEAIKPTHQVLSMQEKKRKSLDNEVEKTANLVINNWNQQIKAKKKLMMSTKKHEALFHLVESSKQSLTQKEKQKLLNKLKKSTEKLEKEDESYYQKNMAGYSTRLKWESTLENCYKSMLELEKERIQLLCNNLNQYSQHISLFGQTLTTCHTQIHCAISKVDVEKDIQALMEETAILSIENKSELLLADYFEEDPKNPMDKERRKSLLKPKLGRLQRDIEKASRDKEGLERKLKALASSSSFSDAKSQKDMETLMDENSLKLDLLQANSYKLSSVLADLEQRPKPCHPCSTCIFKWKEKEHSHTYVKISRPLLTKRLEKAESKAPAGGQNNPSSSPSGSTVSQASKHLCKALYTFQARQDDELNLEKGDIVTVHEKKEEGWWFGSLKGKRGHFPAAYVEELPPKAGNTATQA
Question: Which negative fold change in peptide counts relative to TgWIP^WT [1] does the source give for B4 here?
Answer: 6 fold

Question: And the negative fold change in peptide counts relative to TgWIP^WT [2]?
Answer: 3 fold

Question: And the negative fold change in peptide counts relative to TgWIP^WT [3]?
Answer: 1 fold

Question: And the negative fold change in peptide counts relative to TgWIP^WT [4]?
Answer: 5 fold

B5: Sorbs1 (Cap), endogenous in murine DC2.4 cells (natural protein)
chain: MSSECDVGSSKAVVNGLASGNHGPDKDMDPTKICTGKGTVTLRASSSYRGTPSSSPVSPQESPKHESKSGLEPEDPSADEWKLSSSADTNGNAQPSPLAAKGYRSVHPSLSADKPQGSPLLNEVSSSHIETDSQDFPPTSRPSSAYPSTTIVNPTIVLLQHNRDPASERRAGEQDPVPTPAELTSPGRASERRAKDASRRVVRSAQDLSDVSTDEVGIPLRNTERSKDWYKTMFKQIHKLNRDDDSDVHSPRYSFSDDTKSPLSVPRSKSEMNYIEGEKVVKRSATLPLPARSSSLKSSPERNDWEPLDKKVDTRKYRAEPKSIYEYQPGKSSVLTNEKMSRDISPEEIDLKNEPWYKFFSELEFGRPTNLEKDLSFCQAELEADLEKVETVNKSPSANSPQSSAVSPTPDITSEPPGYIYSSNFHAVKRESDGTPGGLASLENERQIYKSVLEGGDIPLQGLSGLKRPSSSASTKVDRKGGNAHMISSSSVHSRTFHTSNALGPGCKHKKPLSAAKACISEILPSKFKPRLSAPSALLQEQKSVLLPSEKAQSCENLCVSLNDSKRGLPLRVGGSIENLLMRSRRDYDSKSSSTMSLQEYGTSSRRPCPLSRKAGLHFSMFYRDMHQINRAGLSLGSISSSSVRDLASHFERSSLTLARGELGASQEGSEHIPKHTVSSRITAFEQLIQRSRSMPSLDFSGRLSKSPTPVLSRSGLTSARSAESLLESTKLRPREMDGMDSGGVYASPTCSNMADHALSFRSLVPSEPLSICSDELDHCSNVSNDSREGSGGSVHGDFPKHRLNKCKGTCPASYTRFTTIRKHEQQSSRQSDWRSDSRGDKNSLLRNIHLMSPLPFRLKKPLQQHPRQPPPSDSSESPAGQKADLPCHDPQDQPHSAGKPQVPTRLSSRHTMARLSHNSEPPLDRPAGLEDCTRAINNGNPVPYSDHGLDRNNNPQSELAAAHGDSESPRHFIPADYLESTEEFIRRRHDDKEKLLADQRRLKREQEEADIAARRHTGVIPTHHQFITNERFGDLLNIDDTAKRKSGLEMRPARAKFDFKAQTLKELPLQKGDVVYIYRQIDQNWYEGEHHGRVGIFPRTYIELLPPAEKAQPRKLAPVQVLEYGEAIAKFNFNGDTQVEMSFRKGERITLLRQVDENWYEGRIPGTSRQGIFPITYVDVLKRPLVKTPVDYIDLPYSSSPSRSATVSPQQPQAQQRRVTPDRSQPSLDLCSYQALYSYVPQNDDELELRDGDIVDVMEKCDDGWFVGTSRRTRQFGTFPGNYVKPLYL
Question: How did the negative fold change in peptide counts relative to TgWIP^WT [1] turn out when B5 was run?
Answer: 14 fold

Question: What about the negative fold change in peptide counts relative to TgWIP^WT [2] of the same molecule?
Answer: 2 fold

Question: And the negative fold change in peptide counts relative to TgWIP^WT [3]?
Answer: 1 fold

Question: What about the negative fold change in peptide counts relative to TgWIP^WT [4] of the same molecule?
Answer: 30 fold
